This note sets out measurements from US20260193335A1 (ZOETIS SERVICES, published 2026).

What is called Kd is the concentration at which binding is half-saturated. Read a high Kd as lower affinity.

Experiment [1] addresses T1, Feline FcRn (complex of FcRn-α subunit and β-microglobulin, C-terminal His tag) (feline, UniProt A0ABI7ZNY9 23-296; Q5MGS7 21-118).
T1 construct: treated here as one molecule
Put plainly: SPR Biacore, FcRn amine-coupled on CM5, pH 6; pH 6; Table 2 run (FcRn amine-coupled on CM5). The method, then:
(§1) Feline FcRn was isolated, prepared and mutant Fc IgGs were assayed against feline FcRn according to Strietzelg et. al. Standard RACE PCR was used to amplify feline FcRn-α subunit and β-microglobulin. FcRn-α subunit and β-microglobulin were co-transfected into HEK 293 cells and the FcRn complex was purified by IMAC affinity purification via the c-terminal His tag. KD's were measured by Biacore 3000 or Biacore T200 (GE Healthcare, Pittsburgh, PA, USA) using a CM5 sensor chip.
(§2) FcRn was immobilized on the surface of the sensor using the standard amine immobilization method to reach the desired surface density. HBS-EP was used as the immobilization running buffer and 10 mM MES; 150 mM NaCl; 0.005% Tween20; 0.5 mg/mL BSA; pH6 and pH7.2 and PBS; 0.005% Tween20; 0.5 mg/mL BSA; pH7.4 were used for method running buffers and titrations. Fc mutant IgGs were flowed over receptor surfaces and affinity was determined using Scrubber2 software analysis (BioLogic Software Pty, Ltd., Campbell, Australia) or T200 evaluation software (Table 2). Blank runs containing buffer only were subtracted out from all runs. Flow cells were regenerated using 50 mM Tris pH8. Runs were performed at 15° C.

In experiment [2] the target is T1, Feline FcRn (complex of FcRn-α subunit …). Put plainly: SPR Biacore, FcRn amine-coupled on CM5, pH 7.2; pH 7.2; Table 2 run (FcRn amine-coupled on CM5). How it is done: as §1, §2
Experiment [3] addresses T2, NGF (target of felinized anti-NGF antibodies mAb2 and mAb3).
T2 chain: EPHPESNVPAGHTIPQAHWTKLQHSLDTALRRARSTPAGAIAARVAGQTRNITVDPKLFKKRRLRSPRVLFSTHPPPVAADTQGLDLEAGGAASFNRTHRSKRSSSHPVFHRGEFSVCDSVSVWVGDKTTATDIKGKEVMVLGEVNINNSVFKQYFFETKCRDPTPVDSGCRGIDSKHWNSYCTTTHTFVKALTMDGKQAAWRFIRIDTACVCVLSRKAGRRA
The experiment in a line: SPR Biacore T200, target amine-coupled, 15 C. How it is done:
Affinity for each mAb was assessed by Biacore and the IC50 was determined via a suitable cell based potency assay.
Flow cell 1 was used as an internal reference to correct running buffer effects. Antibody binding was measured at 15° C. with a contact time of 250 s and flow rate of 30 μl/min. The dissociation period was 300 s. Regeneration was performed with regeneration buffers (10 mM Glycine pH1.5 and 10 mM NaOH) and flow rate at 20 μl/min for 60 s each. Running/dilution buffer (1×HBS-EP, GE Healthcare, BR-1006-69, 10× including 100 mM HEPES, 150 mM NaCl, 30 mM EDTA and 0.5% v/v surfactant P20, pH7.4, 1:10 in filtered MQ H2O) was used as negative control at the same assay format.
Data were analyzed with Biacore T200 Evaluation software by using the method of double referencing. The resulting curve was fitted with the 1:1 binding model. No differences in binding affinities or IC50 were observed between wild-type and 5434 and 5428 mutant IgGs (Table 1).
For orientation: SPR reads the build-up and loss of mass on a sensor chip optically.

In experiment [4] the target is T2, NGF (target of felinized anti-NGF …). The experiment in a line: cell-based or functional assay.
For experiment [5], the target named is T1, Feline FcRn (complex of FcRn-α subunit …). The experiment in a line: SPR Biacore, biotin-FcRn on SA chip, pH 6; pH 6; Table 5A run (biotin-FcRn on SA chip), ID 88. The method, then:
Feline FcRn was isolated, prepared and mutant Fc IgGs were assayed against feline FcRn according to Strietzel et. al., discussed above. Standard PCR was used to amplify feline FcRn-α subunit and β-microglobulin. FcRn-α subunit and β-microglobulin were co-transfected into HEK 293 cells and the FcRn complex was purified by IMAC affinity purification via the c-terminal His tag. FcRn complex was biotin labeled through BirA enzymatic biotinylatoin reaction. KD's were measured by Biacore T200 (GE Healthcare, Pittsburgh, PA, USA) or Biacore 8K (Cytiva, Marlborough, MA, USA) using a SA sensor chip.
FcRn was captured on the surface of the sensor using a modified SA capture method. 10 mM MES; 150 mM NaCl; 0.005% Tween20; 0.5 mg/mL BSA; pH6 was used as capture, method running buffer and titrations. 1×HBS-P, 0.5 mg/mL BSA; pH7.4 was also used for method running buffer and titrations. Fc mutant IgGs were flowed over receptor surfaces and affinity was determined using T200 evaluation software or Biacore Insight Evaluation software. Blank runs containing buffer only were subtracted out from all runs. Flow cells were regenerated using 50 mM Tris pH8 or pH9. Runs were performed at 15° C.

B1: mAb3 (felinized anti-NGF antibody ZTS-768) WT, feline IgG1a (antibody)
heavy: DVQLVESGGDLVKPGGSLRLTCVASGFTYSNYWMHWVRQAPGKGLQWVARIDPYGGGTKHNEKFKRRFTISRDNAKNTLYLQMNSLKTEDTATYYCVRSGYDYYFDVWGQGTLVTVSSASTTAPSVFPLAPSCGTTSGATVALACLVLGYFPEPVTVSWNSGALTSGVHTFPAVLQASGLYSLSSMVTVPSSRWLSDTFTCNVAHPPSNTKVDKTVRKTDHPPGPKPCDCPKCPPPEMLGGPSIFIFPPKPKDTLSISRTPEVTCLVVDLGPDDSDVQITWFVDNTQVYTAKTSPREEQFNSTYRVVSVLPILHQDWLKGKEFKCKVNSKSLPSPIERTISKAKGQPHEPQVYVLPPAQEELSRNKVSVTCLIKSFHPPDIAVEWEITGQPEPENNYRTTPPQLDSDGTYFVYSKLSVDRSHWQRGNTYTCSVSHEALHSHHTQKSLTQSPGK
light: EIQMTQSPSSLSASPGDRVTITCRASENIYSFLAWYQQKPGKVPKLLIYNANTLAEGVPSRFSGSGSGTDFTLTISSLEPEDAATYYCQHHFGTPFTFGSGTKLEIKRSDAQPSVFLFQPSLDELHTGSASIVCILNDFYPKEVNVKWKVDGVVQNKGIQESTTEQNSKDSTYSLSSTLTMSSTEYQSHEKFSCEVTHKSLASTLVKSFQRSECQRE
notes: The same holds for all IgG1a variants of mAb3; also called mAb3 WT; mAb3 ID No. 88
With B1, the Kd in experiment [1] worked out at 2.95 nM; in experiment [2], 8630 nM; in experiment [3], 0.000582 nM; in experiment [5], 26 nM. Moreover, the “IC50 (cell based potency assay)” value in experiment [4] worked out at 0.036 nM.
